Tests used:
[1] = target: CTLA-4-hFc; assay: BLI, immobilized CTLA-4-hFc; untreated sample before LRP1 depletion
[2] = target: PD-1-hFc (human); assay: BLI, immobilized PD-1-hFc; untreated sample before LRP1 depletion
Chain of PD-1-hFc (human) (chain, as listed by the source limits assumed): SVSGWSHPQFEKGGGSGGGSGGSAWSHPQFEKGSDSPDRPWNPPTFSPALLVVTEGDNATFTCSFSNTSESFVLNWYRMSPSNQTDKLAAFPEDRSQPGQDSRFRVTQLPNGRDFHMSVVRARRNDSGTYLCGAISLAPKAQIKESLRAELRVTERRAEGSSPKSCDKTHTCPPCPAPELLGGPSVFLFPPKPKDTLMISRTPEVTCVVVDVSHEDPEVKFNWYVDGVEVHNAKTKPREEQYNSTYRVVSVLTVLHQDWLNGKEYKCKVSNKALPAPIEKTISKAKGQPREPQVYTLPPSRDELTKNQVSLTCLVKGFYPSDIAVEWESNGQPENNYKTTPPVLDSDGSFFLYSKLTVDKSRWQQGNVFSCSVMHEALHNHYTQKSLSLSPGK

Chain of CTLA-4-hFc (chain, as listed by the source limits assumed): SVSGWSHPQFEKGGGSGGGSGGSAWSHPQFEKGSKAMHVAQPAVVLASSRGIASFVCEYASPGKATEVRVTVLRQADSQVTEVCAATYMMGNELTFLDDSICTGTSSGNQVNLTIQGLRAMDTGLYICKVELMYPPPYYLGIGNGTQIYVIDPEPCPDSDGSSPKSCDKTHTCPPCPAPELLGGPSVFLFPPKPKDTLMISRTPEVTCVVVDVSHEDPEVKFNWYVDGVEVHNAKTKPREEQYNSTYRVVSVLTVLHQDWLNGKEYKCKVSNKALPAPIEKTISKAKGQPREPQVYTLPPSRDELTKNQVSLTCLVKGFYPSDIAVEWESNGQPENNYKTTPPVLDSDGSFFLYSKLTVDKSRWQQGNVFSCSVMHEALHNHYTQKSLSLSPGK

Row | Substance | percent of the maximum binding defined by thermolysin activation [1] | percent of the maximum binding defined by thermolysin activation [2]
1 | A2M-Ipilimumab, untreated (native conformation) | 25% | 
2 | A2M-Nivolumab, untreated (native conformation) |  | 25%

From US20240374745A1
